This is an account of results in publication PMC9119628 (PLoS Pathogens, 2022).

Assay [1] addresses T1, HA-NP (HA-tagged EBOV nucleoprotein) (Zaire ebolavirus (EBOV), UniProt P18272 1-739).
T1 sequence: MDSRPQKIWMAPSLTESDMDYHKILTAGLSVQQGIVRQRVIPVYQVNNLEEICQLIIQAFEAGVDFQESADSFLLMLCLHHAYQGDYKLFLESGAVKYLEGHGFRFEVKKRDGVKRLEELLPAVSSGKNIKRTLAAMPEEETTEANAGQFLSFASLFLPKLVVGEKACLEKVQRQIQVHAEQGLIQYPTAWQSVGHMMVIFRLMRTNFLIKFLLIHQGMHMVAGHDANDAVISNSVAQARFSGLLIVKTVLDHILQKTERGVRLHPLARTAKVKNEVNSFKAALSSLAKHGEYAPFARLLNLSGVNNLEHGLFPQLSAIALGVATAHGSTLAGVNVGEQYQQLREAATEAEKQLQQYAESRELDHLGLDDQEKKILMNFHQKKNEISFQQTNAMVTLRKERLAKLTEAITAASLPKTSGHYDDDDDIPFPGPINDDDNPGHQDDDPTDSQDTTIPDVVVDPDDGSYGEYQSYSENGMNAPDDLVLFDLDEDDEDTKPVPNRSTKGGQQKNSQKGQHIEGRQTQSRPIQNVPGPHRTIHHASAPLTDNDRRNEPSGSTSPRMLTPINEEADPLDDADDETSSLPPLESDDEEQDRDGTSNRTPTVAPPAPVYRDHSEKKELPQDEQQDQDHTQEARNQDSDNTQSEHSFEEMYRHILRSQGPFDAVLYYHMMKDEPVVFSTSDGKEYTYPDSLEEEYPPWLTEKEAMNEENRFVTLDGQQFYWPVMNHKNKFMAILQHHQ
Nature of the assay: co-IP. As to conditions: partners not purified.

For assay [2], the target named is T1, HA-NP (HA-tagged EBOV nucleoprotein). Nature of the assay: pull-down. As to conditions: one partner purified.

B1: untagged EBOV VP35 wild type (natural protein)
chain: MTTRTKGRGHTAATTQNDRMPGPELSGWISEQLMTGRIPVSDIFCDIENNPGLCYASQMQQTKPNPKTRNSQTQTDPICNHSFEEVVQTLASLATVVQQQTIASESLEQRITSLENGLKPVYDMAKTISSLNRVCAEMVAKYDLLVMTTGRATATAAATEAYWAEHGQPPPGPSLYEESAIRGKIESRDETVPQSVREAFNNLNSTTSLTEENFGKPDISAKDLRNIMYDHLPGFGTAFHQLVQVICKLGKDSNSLDIIHAEFQASLAEGDSPQCALIQITKRVPIFQDAAPPVIHIRSRGDIPRACQKSLRPVPPSPKIDRGWVCVFQLQDGKTLGLKI
B1: the “fold change of binding, T6-KO against wt A549 cells” value in assay [1] was determined as 6 fold. For the same molecule, in assay [2], the “fold change of binding, with OTU-wt co-expression against without OTU” value was found to be 5 fold.
